Positions count from the first letter of the chain named. Numbers in names are those of the source.
B1: 37H4H3 (antibody, V domains shown)
VH: EVQLQQSGPELVKPGASVKLSCKASGYTFTSSVMHWVKQKPGQGLEWLGYINPYSDGTKFNEKYKTKATLTSDKSSSTAYMELSSLTSEDSAVYYCARGLIGTRYDSWFAYWGQGTLVTVSA
VL: DIQMTQNASSLSASLGDRVTISCRTSQDINNYLNWYQQKPDGTVKLLIYYTSRLHSGVPSRFSGSGSGTDYSLSIRYLEQEDIATYFCHQGNTLPYTFGGGTKLEIK
notes: Mouse hybridoma antibody; also called antibody 37H4H3
B2: 32G8H6 (antibody, V domains shown)
VH: B1 VH with M34I, Y64C, T66I
VL: B1 VL with A8G, P40Q, S74T, Y77N, H89Q
notes: Mouse hybridoma antibody; also called parent mAb (32G8H6); 32G8H6 (mAb)
B3: 41B1H9 (antibody, V domains shown)
VH: EVQLQQSGTELVKPGASVRLSCTASGLDIKDTYMHWLKQRPEQGLEWIGRIDPASGNAKHDPKFQGKATITSDPSSNTANLQLTSLTSEDSAVYYCASGYGHYVGAMDYWGQGTSVTVSS
VL: DIQMNQSPSSLSASLGDTITITCHASQNINVWLSWYQQKPGNIPKLLIYKASNLHTGVPSRFSGSGSGTGFTLTISSLQPEDIATYYCQQSRNYPYTFGGGTKLEIK
notes: Mouse hybridoma antibody; also called antibody 41B1H9
B4: VH1-PTM+VL1 (antibody, human IgG4 S228P, kappa, V domains shown)
VH: QVQLVQSGAEVKKPGASVKVSCKASGYTFTSSVIHWVRQAPGQGLEWMGYINPYSEGTKFNEKSKIRVTMTRDTSISTAYMELSRLRSDDTAVYYCARGLIGTRYDSWFAYWGQGTLVTVSS
VL: DIQMTQSPSSLSASVGDRVTITCRTSQDINNYLNWYQQKPGKAPKLLIYYTSRLHSGVPSRFSGSGSGTDFTFTISSLQPEDIATYYCQQGNTLPYTFGGGTKVEIKR
notes: Purified humanized IgG with PTM sites removed, hIgG4 CH (S228P) and human kappa CL; leader residues 1-19 of each entry left out; also called U0959FD090-VH1-PTM + U0959FD090-VL1
B5: VH1-PTM+VL2 (antibody, human IgG4 S228P, kappa, V domains shown)
VH: B4 VH
VL: B4 VL with P44V, Y87F
notes: Purified humanized IgG with PTM sites removed, hIgG4 CH (S228P) and human kappa CL; leader residues 1-19 of each entry left out; also called U0959FD090-VH1-PTM + U0959FD090-VL2
B6: VH1-PTM+VL3 (antibody, human IgG4 S228P, kappa, V domains shown)
VH: B4 VH
VL: B4 VL with P44V, F71Y, Y87F
notes: Purified humanized IgG with PTM sites removed, hIgG4 CH (S228P) and human kappa CL; leader residues 1-19 of each entry left out; also called U0959FD090-VH1-PTM + U0959FD090-VL3
B7: chimeric-VH+VL-1 (antibody, human IgG4, V domains shown)
VH: B1 VH with M34I, Y64C, T66I
VL: B1 VL with A8G, P40Q, S74T, Y77N, H89Q
notes: also called chimeric antibody
B8: chimeric-VH+VL2 (antibody, human IgG4, V domains shown)
VH: B1 VH with M34I, Y64C, T66I
VL: B3 VL with S91G, R92Q, N93S, Y96L, G100A, I106L
B9: 38F1E12 (antibody, V domains shown)
VH: EVQLQQSGPELVQPGASVRMSCKASGYTFTSYVMHWVKQKPGQGLEWIGYINPYNDGTKYNEKFKGKATLTSDKSSSTAYMELSSLTSEDSAVYYCARGRNRYDGWFTYWGQGTLVTVSA
VL: B1 VL with N7T, A8T, S9F, T25A, N30S, S74T, R76S, Y77N, H89Q
notes: Mouse hybridoma antibody; also called antibody 38F1E12
B10: 33H11F3 (antibody, V domains shown)
VH: EVQLQQSGPELVKPGASVKMSCKASGYTFTSYVMHWVKQKPGQGLEWMGYINPYNDGTKYNEKFKGKATLTSDKSSNTAYMEFSSLTSEDSAVYYCARIDYGTIHTSWFAYWGQGTLVTVSA
VL: B1 VL with Q6H, N7T, A8T, T25A, N30S, S74T, R76S, Y77N, H89Q, Y96W
notes: Mouse hybridoma antibody; also called antibody 33H11F3

Columns and labels:
human CD47 protein [1] = molecular target: T1, human CD47 protein (human, UniProt Q08722 19-139, limits assumed); experiment: ELISA on human CD47 protein, antibody 6.17E-02 ug/ml
T1 construct: also called human CD47 antigen
T1 sequence (Q08722 19-139 limits assumed): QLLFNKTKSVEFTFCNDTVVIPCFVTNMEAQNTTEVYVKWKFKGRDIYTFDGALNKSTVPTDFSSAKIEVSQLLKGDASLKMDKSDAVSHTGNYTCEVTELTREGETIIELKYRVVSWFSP

human CD47 protein [2] = molecular target: T1, human CD47 protein; experiment: ELISA on human CD47 protein, antibody 2.06E-02 ug/ml
human CD47 protein [3] = molecular target: T1, human CD47 protein; experiment: ELISA on human CD47 protein, antibody 45 ug/ml
human CD47 protein [4] = molecular target: T1, human CD47 protein; experiment: ELISA on human CD47 protein, OD450nm against log Ab conc; EC50 row of the table drawn under the plot; fit of the flat control curve
human CD47 protein [5] = molecular target: T1, human CD47 protein; experiment: ELISA on human CD47 protein, antibody 1.85E-01 ug/ml
human CD47 protein [6] = molecular target: T1, human CD47 protein; experiment: ELISA on human CD47 protein, antibody 2.29E-03 ug/ml
human CD47 protein [7] = molecular target: T1, human CD47 protein; experiment: ELISA on human CD47 protein, antibody 5.00E+00 ug/ml
human CD47 protein [8] = molecular target: T1, human CD47 protein; experiment: ELISA on human CD47 protein, antibody 5.56E-01 ug/ml
human CD47 protein [9] = molecular target: T1, human CD47 protein; experiment: ELISA on human CD47 protein, antibody 15 ug/ml
human CD47 protein [10] = molecular target: T1, human CD47 protein; experiment: ELISA on human CD47 protein, antibody 1.67E+00 ug/ml
human CD47 protein [11] = molecular target: T1, human CD47 protein; experiment: ELISA on human CD47 protein, antibody 7.62E-04 ug/ml
human CD47 protein [12] = molecular target: T1, human CD47 protein; experiment: ELISA on human CD47 protein, antibody 6.86E-03 ug/ml
human CD47 protein [13] = molecular target: T1, human CD47 protein; experiment: SPR (Biacore) affinity ranking, ligand captured through Fc, human CD47 as analyte, 25 °C, 1:1 Binding model; fit of a flat sensorgram
human CD47 protein [14] = molecular target: T1, human CD47 protein; experiment: SPR Biacore, supernatant ranking run, human CD47 analyte 5 nM
[15] = molecular target: T2, extracellular domain of human CD47 (human, UniProt Q08722 19-139); experiment: hybridoma screening ELISA on the immunogen
T2 construct: also called immunogen
T2 sequence (Q08722 19-139 limits assumed): as above
Procedure: Balb/c mice (4-6 mice per group) were immunized with the extracellular domain of human CD47 and immune adjuvant. Immune boosts were performed 3-5 times. Serum collection and titer evaluation by ELISA against target immunogen were performed. Spleens were extracted surgically from the highest titer mouse or mice. Mouse spleen cells were fused with rat myeloma cells facilitated by PEG. Fused cells were seeded into 96-well plates in the presence of HAT Fusion medium. Three consecutive rounds of clone testing were performed by ELISA using the immunogen for positive screening to identify and validate the positive hybridoma clones. Hybridoma cell lines producing the most suitable antibodies were subcloned and expanded for monoclonal antibody production and cell storage.

human CD47 protein [16] = molecular target: T1, human CD47 protein; experiment: ELISA on human CD47 protein, antibody 0 ug/ml (blank)
human CD47 protein [17] = molecular target: T1, human CD47 protein; experiment: ELISA on human CD47 protein, OD450nm against log Ab conc; EC50 row of the table drawn under the plot; the curve has no lower plateau in the range shown
human CD47 protein [18] = molecular target: T1, human CD47 protein; experiment: SPR Biacore, purified IgG Fc-captured, human CD47 analyte 0.3125-10 nM
Excerpt: Affinity measurement of purified humanized IgGs. The affinity of purified antibody binding to human CD47 was individually determined using a Surface Plasmon Resonance (SPR) biosensor, Biacore® T200/8K (GE Healthcare). Antibodies were captured on the sensor chip through Fc capture method. Human CD47 protein was used as the analyte. The data of dissociation (kd) and association (ka) rate constants were obtained using Biacore T200/8K evaluation software. The equilibrium dissociation constants (KD) were calculated from the ratio of kd over ka.

human CD47 protein [19] = molecular target: T1, human CD47 protein; experiment: SPR Biacore, supernatant antibody Fc-captured, human CD47 analyte 5 nM
Procedure: Production and affinity ranking of humanized antibodies. The designed plasmids of heavy chain and light chain were sent for 3 mL transfection following GenScript's SOP. For affinity ranking, Antibodies were captured on the sensor chip through Fc capture method. Human CD47 protein was used as the analyte. The surface was regenerated before the injection of another antibody. The process was repeated until all antibodies were analyzed. The off-rates of antibodies were obtained from fitting the experimental data locally to 1:1 interaction model using the Biacore® T200/8K evaluation software. The antibodies were ranked by their dissociation rate constants (off-rates, kd).

| Molecule | ELISA signal (human CD47 protein [1]) | ELISA signal (human CD47 protein [2]) | ELISA signal (human CD47 protein [3]) | ELISA signal (human CD47 protein [5]) | ELISA signal (human CD47 protein [6]) | ELISA signal (human CD47 protein [7]) | ELISA signal (human CD47 protein [8]) | ELISA signal (human CD47 protein [9]) | ELISA signal (human CD47 protein [10]) | ELISA signal (human CD47 protein [11]) | ELISA signal (human CD47 protein [12]) | binding result [15] | Kd (human CD47 protein [18]) [nM] | koff (human CD47 protein [18]) [s⁻¹] | kon (human CD47 protein [18]) [M⁻¹ s⁻¹] | also measured |
| --- | --- | --- | --- | --- | --- | --- | --- | --- | --- | --- | --- | --- | --- | --- | --- | --- |
| Isotype control (antibody) | 0.445 | 0.48 | 0.543 | 0.551 | 0.287 | 0.562 | 0.553 | 0.49 | 0.454 | 0.211 | 0.387 | – | – | – | – | EC50 (human CD47 protein [4]): 3.42 ng/mL |
| NC | – | – | – | – | – | – | – | – | – | – | – | – | – | – | – | Kd (human CD47 protein [13]): 387 nM; koff (human CD47 protein [13]): 0.0179 s⁻¹; kon (human CD47 protein [13]): 46300 M⁻¹ s⁻¹; Kd (human CD47 protein [14]): 387 nM; koff (human CD47 protein [14]): 0.0179 s⁻¹; kon (human CD47 protein [14]): 46300 M⁻¹ s⁻¹ |
| B1 | – | – | – | – | – | – | – | – | – | – | – | binds | – | – | – | – |
| B2 | 3.73 | 3.33 | 3.83 | 3.81 | 2.68 | 3.78 | 3.8 | 3.87 | 3.71 | 2.32 | 2.98 | – | – | – | – | ELISA signal (human CD47 protein [16]): 0.086; EC50 (human CD47 protein [17]): 6.55 ng/mL |
| B3 | – | – | – | – | – | – | – | – | – | – | – | binds | – | – | – | – |
| B4 | – | – | – | – | – | – | – | – | – | – | – | – | 0.872 | 0.0023 | 2.64e+06 | – |
| B5 | – | – | – | – | – | – | – | – | – | – | – | – | 0.556 | 0.00193 | 3.46e+06 | – |
| B6 | – | – | – | – | – | – | – | – | – | – | – | – | 0.458 | 0.0016 | 3.49e+06 | – |
| B7 | 3.19 | 2.9 | 3.48 | 3.34 | 2.4 | 3.48 | 3.32 | 3.39 | 3.32 | 1.71 | 2.64 | – | 0.482 | 0.00255 | 5.3e+06 | ELISA signal (human CD47 protein [16]): 0.162; Kd (human CD47 protein [19]): 0.34 nM; koff (human CD47 protein [19]): 0.00261 s⁻¹; kon (human CD47 protein [19]): 7.69e+06 M⁻¹ s⁻¹ |
| B8 | 0.435 | 0.342 | 1.95 | 0.475 | 0.276 | 0.918 | 0.56 | 1.39 | 0.663 | 0.255 | 0.44 | – | – | – | – | ELISA signal (human CD47 protein [16]): 0.251 |
| B9 | – | – | – | – | – | – | – | – | – | – | – | binds | – | – | – | – |
| B10 | – | – | – | – | – | – | – | – | – | – | – | binds | – | – | – | – |
